Reference: the DeepSol protein solubility set

assay: soluble on expression in E. coli; label from the status in PepcDB or PDB records

| Sequence | soluble on expression in E. coli |
| --- | --- |
| MGSDKIHHHHHHMSEDLLNSFQEAYSNLELFPLMERNEMERFRVEYGDDLIADLNQLVEDSPNGDGKIVFTGHRGCGKSTLLAEFSRQIQDKYFVVLFSIADKIEMSAVNHINILFAIAVNLMTEAEARKVDIPQSTKEALYKWFATRTRTEESNLQAEVSIGFDLLKLISSKLKADASVRDEIKQEFERKLSDLVARINEIAALIQAATKQNVLVIIDDLDKLDLGRVNEIYRDNIKALCQPNFQIIYTIPIAVLRETFISTIIATETNDQVVAMPVLKIFDKGKNRFPNAQPRREATKILGEVLQKRIPNELIAAETAEKIVIYSGGVLRELIRISKECCRICLRTIRRNPSAEVIIDDKILLQAINKIRNDFSIRLGKTDIDILQSVYEQFMPNDPKQAEFLDLLHGLYVLEYRTDETWYDVHPIIIESLKRQGAINVK | not soluble |
| MIRVIEKGDKVSLPFSRGILTRSITSVGIDVDLAYSIAIEVQEELVKKGKTIVTKDEIRKLTYQKLIEKGFKEEAKRYIFWRRFRKMKVPLIILLGGPTGVGKSTIATELAFRLGIRSVIGTDSIREVLRKIITPELLPTIHTSTFLAWKELKGTVTDSPIVAGFESQVSAVTVGINAIIERAVREGLNAIIEGIHVVPGFVKVEGEMTFMYMLIARSREDLEARFYERTRYSKRPADYYISHLDEILEIQDYLIRRAKKFNVPVIENVELEETVSKIMEDIMQKTIEIMKGKGLDLLEEP | soluble |
| AQSSTDVIDQLFTALSGWFHGSEEKLGEFRGCFFINTSAEFSDDSGEIATYCRHHKQQVRELIQRYLKSDNTSLLDAICIMKEGAITTAYMTKEYDDVTKKCVEILHKL | not soluble |
| MPHTSSDVADFKEVRHIRGDINLKPFIAIWEVTRACGLVCQHCRADAQHEPHPEQLTTEQGKQLLSDLASYERPKPLVVLTGGDPFERQDLEELVDYGTSLGLNVSLSPSVTPRLTPERIHRLYELGGKAMSMSLDGATAETHDAFRGFSGTFDTTVKRAADILQAGFRLQINSTLTKSNIREAPALLKTVMGMGAKMWYVFFLVPTGRGAALNALNPQEREDVLHWLADVSDRIAIKTTEAPQYRRVVIQQRLRKEGQLDKYQGGELYRYLTQKTTELLGAHPVQPRRPRPPMAVNSGSGFVFIDHIGDVYPSGFLPIHCGNVKQASIKTIYSQSPTFQALRDPNHWHGKCSVCEFHDVCGGSRSTAYALTGDVRASDPTCVYMPQPWLDAGHSGVED | not soluble |
| MGSDKIHHHHHHMIQQKVRVGLLGVGLDTYWGQFEGLLPRLLTYQDEIAAKIEAMDVQVINTGMVDSPLKANECVLQLKQADVELVFLFISTYALSSTILPVAQQVGKPIIILNIQPASAIDYQKLNSMGDRGRMTGEWLAHCQACSVPEFASVLNRAGVRYDIITGYLSEDYVWEEIASWVDAVRVMYGMRTSRLGVLGHYYCGMLDVYTDLMKQSAVFGTHIELLEMCELKAYREEVSDGELKRKLDEFYDKFNVEASCSSEELVRAARTSVALDKLVNVHQLGAMAYYYEGFCGNDYENIVTSVIAGNTLLTGYGIPVAGECEVKNAQAMKIMSLLKAGGSFSEFYAMDFKDDIVLLGHDGPAHFAIAEEKVKLVPLPLYHGKPGKGLSIQMSVKPGDVTLLSVCEGRDGVFLLAAEGEAVQGETLHIGNTNSRYRFPCGARRFMDQWSKAGPSHHCAIGIGHKVSELKKLAFLLDIPIIVVE | not soluble |
| MGSDKIHHHHHHMIEQLIQQAQPYWQQYIEHEFVQQLAKGTLPKACFQHYLKQDYLYLFHYSRAFALGVFKAKNFAEMETPRKTLEILCQEIQLHLNYCREWGISEQEIFTTQESAACIAYTRYLLDCGMTGSLAELYAAVTPCALGYAQVARYITQHYPRLPNNPYQTWIDTYASEEFQQAAQETVDFLTALCKPLNPSQLAEIQQIFTTATRMEIAFWQMGLDLA | not soluble |
| MLEELTLERFLSHRSAFSLVIDVRSPHEYLESHLPGALNLPVLSDLEHERVGTLYKESPFEARILGASLICANIASALSWLKDSLHPSQKVLIYCARGGQRSLSLALILSSIGYQIARLIGGYKGYRAHVAASWQVPRKESFLTLVGPTGGGKSELIQSLSWSLDIEGLARHKGSSFGAIEGEQPSTKMFQNLLFERLLGLREEPLVAVEGESKRLGNLILPSPLYERYKSAPKVFIDSPLEARIDRTMQEYASISPAFFEGAMQKIARYMNKEAHKAASLAFWQGDLRRCAELLLVEYYDKVYKMEPCEYTILHTSKESTLKELERIKGEILSSVRE | not soluble |
| MGSSHHHHHHSSGLEVLFQGPHMETAIWIKNSKLPAVLVAAGAFDAAVQALSKQVGVVKLEPLKKYFTNIYEGCRTYIPSTPCELPAQLGYVRAYDDTVSEDQILPYVPGLDVVNEKMNEGYKNFKLNKPDIAIECFREAIYRITLLMVDDAEDEKLAHKILETAREYILGLSIELERRSLKEGNTVRMLELAAYFTKAKLSPIHRTNALQVAMSQHFKHKNFLQASYFAGEFLKIISSGPRAEQARKIKNKADSMASDAIPIDFDPYAKFDICAATYKPIYEDTPSVSDPLTGSKYVITEKDKIDRIAMISKIGAPASGLRIRV | soluble |
| PEMKIVMTSTTEVMEEVLVVAYGTAKKSAFTGSAKMIHTEQITKRPVTNVIESLSGQVAGLQMTMTNGQPGETPSILIRGISSMSAKTDPLIVLDGMPYEGGWNNINPADVESISVLKDAASTALYGARGANGVIIITTKSAKAGD | not soluble |
| MGSDKIHHHHHHMYLKVYKEDVIEGLQKAANIIPAKTGAAYLRSIWLNAADGTLSVMATDSNIEFRGTYTAEVTEPGLAGVQGRAFVDLLRKLPAGEIVLQLDAEANVLRIEQGRRKYKLPVNDPVWFQNFSDFPADGAVVWSGDFLQELIDRIAFCISDEDAVEAIACLFMKPVAEGRIEACGLNGHQFAMLRFLHDDLHAKLPAEGVLVQKKYLGELKKWLGADEIELNISEKRMHLRTGDGRETFSLPLSSYQYPDYMNFIAKLQGEGVSNLEVDRKEGMDALDRLQIFNSDNNRCTYFDLSGGEVVLTAQGQDVGSASESLEASYDGDIRRIAFPTRNLIDIMNHYQSGRLRLTLTGAEGPCGISGEEDPEYQVIVMPMKIVEETYYSEEEV | not soluble |
| MGSSHHHHHHSSGRENLYFQGHMNPNFLDFEQPIADLQAKIEELRLVGNDNALNISDEISRLQDKSKALTENIFGNLSSWQIAQLARHPKRPYTLDYIGYLFSDFEELHGDRHFADDPAIVGGVARLDGSPVMVIGHQKGREVREKVRRNFGMPRPEGYRKACRLMEMAERFKMPILTFIDTPGAYPGIDAEERGQSEAIAWNLRVMARLKTPIIATVIGEGGSGGALAIGVCDQLNMLQYSTYSVISPEGCASILWKTAEKAPEAAEAMGITAERLKGLGIVDKVIDEPLGGAHRDPASMAESIRGELLAQLKMLQGLEMGELLERRYDRLMSYGAP | soluble |
| GQSAKEAIEAANADFVKAYNSKDAAGVASKYMDDAAAFPPDMARVDGRQNIQKLWQGAMDMGISELKLTTLDVQESGDFAFESGSFSLKAPGKDSKLVDAAGKYVVVWRKGQDGGWKLYRDIWNSDPAK | soluble |
| MSSSNENAGKHSYLRSLISGLSSQGICAYVYASSGYGESSTDIVFTGKAFIAEAGEIVEEMERFRYEERMIISDIDVSRIQTERLINSSFKAAVTFHTHDEKFNQLPFKLRSRQESLPMTRRVLEHHHHHH | soluble |
| MGSDKIHHHHHHAVVSCDSILGEEEVDCSVEYRVKFKYDYNMKYADAFSREVGTVTLYAFDDNGKLVYQKTEEGDVLGEEGYTMKVDLEPGDYHLVTWAGLNDEASFSVPLVTAGESSLDELQCRMDRLYSRAADGTAVVNSKLSALWHGEVTKQSFSRAASSQVVTVPLVKNTNTIRIILQQMDGVTVEVDKFEFTITDDNGLMNYDNKLLEDETLTYYPYYRMQGGTDMGIRADGDAEDSNISVAIAQITVGRLVVENNPRLTITNKETGEPVLSIPLVKYLLLTEAEGHEMTNQEYLDRQDEYNMTFFLDESMKWINTSIIINDWVVRFNELDM | not soluble |
| TAALVINANPFTLGHQYLVEKAAAENELLHLFMVSDDSSLIPFSVRKQLILAGTEHLSNICYHETGPYIISKSIFPSYFQKDQASVIESQARIDLAIFIQIAKYLGIKGRYVGEEPTSLVTGIYNQIMLQELPKQAIDCIVVPRKTYKDGPISASTVRKALKEGNEQILRELLPSTSLNYFLSPEAQPLIKKIQKADNVIHY | not soluble |
| MSHKLTILPFLIKFTPKFPQSIDHDEHGLNVYAFDLDHTIIKPKSPNISFSRSASDWQFINFNSKKSTLDYLCNIIDNDPTAVIVIFSNQGGVITVPRTSKSCTKYTNKILLFLKAIKNDERGETLSHRLWLYAAPKRPKTFAANHSKITFASLGESYNNDPNIFEKVRKPMTGMVEFFKRDLESAYRVSEQISPIKLNWIYYCGDAAGRKKDFSDSDIKFAENLHVEFKYPEEIFHG | soluble |
| MGSDKIHHHHHHCELDRDPEGKDFQQPYTSFVQTKQNRDGLYALLRNTENPRMHFYQELQSDMYCTTITDGNSLAPFVNWDLGILNDHGRADEDEVSGIAGYYFVYNRLNQQANAFVNNTEAALQNQVYKNSTEIANAKSFLAEGKVLQALAIWRLMDRFSFHESVTEVNSGAKDLGVILLKEYNPGYIGPRATKAQCYDYILSRLSEAIEVLPENRESVLYVSRDYAYALRARIYLALGEYGKAAADAKMVVDKYPLIGAADASEFENIYRSDANNPEIIFRGFASATLGSFTATTLNGAAPAGKDIKYNPSAVPFQWVVDLYENEDFRKSVYIAKVVKKDKGYLVNKFLEDKAYRDVQDKPNLKVGARYFSVAEVYLILVESALQTGDTPTAEKYLKALSKARGAEVSVVNMEALQAERTRELIGEGSRLRDMVRWSIPNNHDAFETQPGLEGFANTTPLKAQAPVGFYAYTWEFPQRDRQTNPQLIKNWPI | not soluble |
| EKRVRRTRSLVEVLNVDPETGDLGINEIFNWYPSEDGFLKVGDSHIMQEIMHVRGWDSGQLRGEMENRRKILTYMYEKNMRSYIQVSLVVQAYQSYPKMVMEAIENNILQGMIQDMVA | not soluble |
| MDRKFNSDEQWYISPLLNLATVKEEMLEVRELGEVIIDRTMDDFDSKTEKEHEMEMWKNSLSYIQGVTEEESLEAIEEVSNLDMFLEGSSDVQTRRFEDMKGDRKFLERSPLVSHKHVISREKTMKTSRQRKSAYVTSLKYDKYMLNAGANTSLFHPQCSILEKCEDDIVLIVDALMPYNRELLSSELRSSRLLKPMTKFLVRGDTLLSDLRQKFVCQSDTIVPLENGLELDPPNLDNATAVRFPSSFIFVHDTFYVDMPPNAIDISHPIRNFMLHREIYDPVEACSMEGVRIIDLKLRLGQPYIFQHSGNCEHLLVFHDLRLLHESDPWGIDKYPFTLYEKGNEKKCDICKKGHVEFVVERHELLPNTYTHFCRTCFQEFNYVHGVKTHSFIAWPYTELQTGEQRGWPFGDFEQEDD | not soluble |
| MRCPFCGAEDTSVVDSRISEEGARIRRRRRCVECEKRFTTYETVELRFPQVIKQDGNRVEFNREKLYTSFARALHKRPVPTGQVDAAIERILQKLLGSGVQEISSRTIGEWVMQELYSLDKVAYIRFASVYRSFEDVGDFQEVIREVQSSPQNGDGPSS | not soluble |
| MAKLVTENISKRFKNQDVLKHINITLENNEVYGLLGINGAGKTTLMKIICGILQQDSGEIKLDNRPMTRNDLHKVGSLIETPATYNHLSAQDNLKIVCLNESVDFSEINSVLSLVNLNVDKKKKVKDFSLGMKQRLGIAMALIKKPEILVLDEPSNGLDPYGIQELRELLKLLTEQGTSIIISSHILSEIQVLADHIGIIHEGELKYQQRNNKDENLEEIFFKITKGDYK | not soluble |
